Measured values taken from patent publication US20120277286A1, “COMPOSITIONS AND METHODS FOR THE TREATMENT OR PREVENTION OF MITOCHONDRIAL DISEASES” (The Government of the USA, as represented by the Secretary, …, priority 2009, published 2012).
Residue numbers refer to the chain shown, from its start. Numbers in names are those of the source. *1 amine or outer side, *2 acyl side, *3 side chain or, on linkers, in order; H or OH if unused. Where a SMILES comes first, the peptide text is derived from it. Bridges are numbered along the chain shown (N, C = ends). Roman numbers before positions name the chains, in order. [ ]: non-standard residue; d: D form. Actinocin(9to1) = Cc1c2oc3c(C)ccc(C(=O)[*:1])c3nc-2c(C(=O)[*:2])c(N)c1=O; NMeV = CN[C@H](C(=O)O)C(C)C; Sar = CNCC(=O)O

B1: PINK1-YFP: YFP fused to PINK1 (protein, UniProt Q9BXM7 78-581, looked up)
Serine/threonine-protein …: AARLQRQFVVRAWGCAGPCGRAVFLAFGLGLGLIEEKQAESRRAVSACQEIQAIFTQKSKPGPDPLDTRRLQGFRLEEYLIGQSIGKGCSAAVYEATMPTLPQNLEVTKSTGLLPGRGPGTSAPGEGQERAPGAPAFPLAIKMMWNISAGSSSEAILNTMSQELVPASRVALAGEYGAVTYRKSKRGPKQLAPHPNIIRVLRAFTSSVPLLPGALVDYPDVLPSRLHPEGLGHGRTLFLVMKNYPCTLRQYLCVNTPSPRLAAMMLLQLLEGVDHLVQQGIAHRDLKSDNILVELDPDGCPWLVIADFGCCLADESIGLQLPFSSWYVDRGGNGCLMAPEVSTARPGPRAVIDYSKADAWAVGAIAYEIFGLVNPFYGQGKAHLESRSYQEAQLPALPESVPPDVRQLVRALLQREASKRPSARVAANVLHLSLWGEHILALKNLKLDKMVGWLLQQSAATLLANRLTEKCCVETKMKMLFLANLECETLCQAALLLCSWRAAL
modifications: YFP fusion
B2: T175E: phosphomimetic YFP-Parkin mutant (protein, UniProt O60260 1-465, looked up, variant T175E)
E3 ubiquitin-protein ligase …: MIVFVRFNSSHGFPVEVDSDTSIFQLKEVVAKRQGVPADQLRVIFAGKELRNDWTVQNCDLDQQSIVHIVQRPWRKGQEMNATGGDDPRNAAGGCEREPQSLTRVDLSSSVLPGDSVGLAVILHTDSRKDSPPAGSPAGRSIYNSFYVYCKGPCQRVQPGKLRVQCSTCRQATLELTQGPSCWDDVLIPNRMSGECQSPHCPGTSAEFFFKCGAHPTSDKETSVALHLIATNSRNITCITCTDVRSPVLVFQCNSRHVICLDCFHLYCVTRLNDRQFVHDPQLGYSLPCVAGCPNSLIKELHHFRILGEEQYNRYQQYGAEECVLQMGGVLCPRPGCGAGLLPEPDQRKVTCEGGNGLGCGFAFCRECKEAYHEGECSAVFEASGTTTQAYRVDERAAEQARWEAASKETIKKTTKPCPRCHVPVEKNGGCMHMKCPQPQCRLEWCWNCGCEWNRVCMGDHWFDV
modifications: YFP fusion
notes: phosphomimetic YFP-Parkin mutant
B3: T217E: phosphomimetic YFP-Parkin mutant (protein, UniProt O60260 1-465, looked up, variant T217E)
E3 ubiquitin-protein ligase …: B2 E3 ubiquitin-protein ligase … with E175T, T217E
modifications: YFP fusion
notes: as for B2
B4: C212Y: YFP-Parkin patient mutation in conserved RING-like region (protein, UniProt O60260 1-465, looked up, variant C212Y)
E3 ubiquitin-protein ligase …: B2 E3 ubiquitin-protein ligase … with E175T, C212Y
modifications: N-terminal YFP fusion
notes: YFP-Parkin patient mutation in conserved RING-like region
B5: T175, 217E: double phosphomimetic YFP-Parkin mutant (protein, UniProt O60260 1-465, looked up, variant T175E T217E)
E3 ubiquitin-protein ligase …: B2 E3 ubiquitin-protein ligase … with T217E
modifications: YFP fusion
notes: double phosphomimetic YFP-Parkin mutant

Test system: HeLa cells
Assay: Parkin colocalization with mitochondria scored by confocal microscopy
Type: cell-based
Conditions: for effect on CCCP-induced Parkin recruitment to mitochondria: HeLa cells expressing YFP-Parkin, added together with CCCP; for spontaneous translocation of mutant YFP-Parkin to mitochondria: without CCCP
Method: Cultured cells seeded in borosilicate chamber slides (Thermo Fisher Scientific) were transfected or cotransfected with YFP-Parkin, ECFP-Parkin, mCherry-Parkin, DsRed-Mito (Clontech Laboratories, Inc.), pcDNA3.1 (Invitrogen), vMIA, and/or Drp1K38A constructs using Fugene 6 (Roche). Parkin-myc was a gift from M. Cookson (National Institutes of Health, Bethesda, Md.). Cells were fixed 12-24 hours after transfection with 4% paraformaldehyde in PBS. Cells were stained with following primary antibodies: mouse monoclonal cytochrome c (BD), rabbit polyclonal Tom20 (Santa Cruz Biotechnology, Inc.), mouse monoclonal Parkin PRK8 (Santa Cruz Biotechnology, Inc.), rabbit polyclonal PMP70 (Invitrogen), and/or mouse monoclonal TRAP1 (Abcam); and with the following secondary antibodies: mouse and/or rabbit Alexa 488, 594, and 633 (Invitrogen). For assessment of mitochondrial membrane potential, cells were pulsed with 50 nM Mito-Tracker red (Invitrogen) for 15 min, washed, and incubated for an additional 10 minutes before fixation or imaging. For assessment of cell metabolic potential, cell nuclei were stained with Hoechst 33342 (Invitrogen).
Fixed cells and live cells in the FLIP assay were imaged using an inverted microscope (LSM510 Meta; Carl Zeiss, Inc.) with a 63×/1.4 oil DIC Plan Apo objective at 25° C. and 37° C., respectively. For the FLIP assay, a bleach region of interest (ROI) occupying approximately one eighth of the cell was positioned over a relatively mitochondria-free portion of the cytosol. Cells were alternately bleached (488 nm using a 30-mW argon laser at 75% power and 100% transmission for 150 iterations) and imaged (488 nm at 75% power and 2% transmission) for 10 minutes (—60 cycles over the length of the experiment). Two channel prebleach and postbleach images were obtained with 488 and 594 lasers to assess the position of mitochondria before and after bleaching. Circular ROIs with diameters of ˜1 and 5 μm, respectively, were placed over the mitochondria and cytosol of the target cell, and an ROI of 10 μm was placed over the control cell. Imaging of YFP-Parkin translocation in live HeLa cells was performed on a live cell imager system (UltraView LCI; PerkinElmer) at 35° C. with a 100×/1.45 α-Plan-Fluor objective.
Image contrast and brightness were adjusted in Photoshop (Adobe). Colocalization was assessed with line scans using MetaMorph (MDS Analytical Technologies). For analysis of mitochondrial membrane potential in cells, mitochondrial voxels in each image (the cytochrome c channel threshold was ≧400 au) were segregated into Parkin-positive (the YFP-Parkin channel threshold was ≧1,100 au) or Parkin-negative subsets, and MitoTracker intensity for each voxel was measured using Volocity software (Improvision). For each cell, the mean MitoTracker intensity per voxel was calculated for the Parkin-positive and Parkin-negative subsets. The difference in mean Mito-Tracker intensity between the Parkin-positive and Parkin-negative subsets was calculated using a paired t test. Western blotting HeLa cells stably expressing YFP-Parkin, HEK293 cells, and rat cortical neurons 2 days in vitro were harvested and fractionated as described previously (Karbowski et al., J. Cell Biol. 178: 71-84, 2007). Samples were run on SDS-PAGE and immunoblotted with the following antibodies: polyclonal rabbit anti-GFP (Invitrogen), mouse monoclonal anti-Parkin (PRK8), and mouse monoclonal anti-Porin 31HL (EMD).
Confocal microscopy of fixed samples, scoring of Parkin recruitment and Parkininduced mitophagy, and live cell imaging were performed as described previously (Narendra (2008) J Cell Biol 183: 795-803). Experiments in Mfn1/2 null cells were performed as described previously with minor modifications.
Confocal microscopy of fixed samples, scoring of Parkin recruitment and Parkin-induced mitophagy, and live cell imageing were performed as described previously (Narendra (2008) J Cell Biol 183: 795-803). […]

Row | Molecule | effect on CCCP-induced Parkin recruitment to mitochondria | spontaneous translocation of mutant YFP-Parkin to mitochondria (HeLa) | also measured
1 | CC[C@H]1/C=C/C=C/C[C@@H](C)[C@H](O)[C@@](C)(O)C(=O)[C@@H](C)[C@H](O)[C@@H](C)C(=O)[C@@H](C)[C@H](O)[C@@H](C)/C=C/C(=O)O[C@@H]2[C@H](C)[C@H](CC1)O[C@]1(CC[C@H](C)[C@H](C[C@@H](C)O)O1)[C@H]2C [oligomycin, reference compound] | not inhibited |  | YFP-Parkin colocalization with mitochondria, % of cells (HeLa cells, 10 μM CCCP+10 μM oligomycin, 1 hour): 77.35±7.64%
2 | Cc1c2oc3c(C)ccc(C(=O)N[C@@H]4C(=O)N[C@H](C(C)C)C(=O)N5CCC[C@H]5C(=O)N(C)CC(=O)N(C)[C@@H](C(C)C)C(=O)O[C@@H]4C)c3nc-2c(C(=O)N[C@@H]2C(=O)N[C@H](C(C)C)C(=O)N3CCC[C@H]3C(=O)N(C)CC(=O)N(C)[C@@H](C(C)C)C(=O)O[C@@H]2C)c(N)c1=O [actinomycin D, reference compound] (I: T[dV]P[Sar][NMeV] / II: T[dV]P[Sar][NMeV]; ester I:1-I:C, II:1-II:C; linker I:N-II:N via Actinocin(9to1)) | modest effect |  | 
3 | CC(=O)N[C@@H](CS)C(=O)O [N-acetyl-cysteine, reference compound] | not blocked |  | 
4 | B1 |  |  | cells with mCherry-Parkin recruited to mitochondria (HeLa, co-expression, absence of CCCP): 57.9±1.8%
5 | B2 |  | did not translocate to mitochondria spontaneously | 
6 | B3 |  | did not translocate to mitochondria spontaneously | 
7 | B4 |  |  | recruitment of mutant YFP-Parkin to depolarized mitochondria (HeLa, CCCP 1 hr): blocked
8 | B5 |  | did not translocate to mitochondria spontaneously | 
